According to patent publication US20040258687A1:

Target: guanylyl cyclase C (GC-C), as expressed on T84 human colon carcinoma cells (human) (UniProt P25092)
Experiment: cell-based or functional assay

Sequence of guanylyl cyclase C (GC-C), as expressed on T84 human colon carcinoma cells (human) (P25092 24-1073): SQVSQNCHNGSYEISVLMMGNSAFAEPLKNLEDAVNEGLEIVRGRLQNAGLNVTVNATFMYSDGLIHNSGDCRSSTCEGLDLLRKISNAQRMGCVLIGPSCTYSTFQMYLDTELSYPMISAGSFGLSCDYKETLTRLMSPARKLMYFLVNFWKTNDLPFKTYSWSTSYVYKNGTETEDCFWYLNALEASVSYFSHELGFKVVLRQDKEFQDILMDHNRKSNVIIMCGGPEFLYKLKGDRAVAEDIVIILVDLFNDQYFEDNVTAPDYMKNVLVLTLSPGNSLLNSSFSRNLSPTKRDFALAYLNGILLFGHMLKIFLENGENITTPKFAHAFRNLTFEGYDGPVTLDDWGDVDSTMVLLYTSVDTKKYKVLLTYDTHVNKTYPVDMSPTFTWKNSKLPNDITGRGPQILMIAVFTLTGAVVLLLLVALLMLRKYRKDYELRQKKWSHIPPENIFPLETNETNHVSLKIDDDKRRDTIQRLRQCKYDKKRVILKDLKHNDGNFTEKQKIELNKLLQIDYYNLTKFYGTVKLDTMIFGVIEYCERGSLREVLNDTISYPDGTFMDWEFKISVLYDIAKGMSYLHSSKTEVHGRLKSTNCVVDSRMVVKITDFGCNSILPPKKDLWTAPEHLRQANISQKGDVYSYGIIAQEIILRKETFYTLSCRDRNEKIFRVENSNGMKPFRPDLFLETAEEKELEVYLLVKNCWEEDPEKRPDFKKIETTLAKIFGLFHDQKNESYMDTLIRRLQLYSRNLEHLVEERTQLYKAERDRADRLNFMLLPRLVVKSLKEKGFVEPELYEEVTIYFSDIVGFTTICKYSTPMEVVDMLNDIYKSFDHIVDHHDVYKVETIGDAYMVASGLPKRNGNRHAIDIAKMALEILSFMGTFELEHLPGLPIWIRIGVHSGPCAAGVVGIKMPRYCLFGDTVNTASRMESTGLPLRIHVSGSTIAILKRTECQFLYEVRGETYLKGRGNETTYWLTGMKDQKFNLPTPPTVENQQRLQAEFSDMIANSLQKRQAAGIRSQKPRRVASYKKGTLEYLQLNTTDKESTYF

**Q.** With “E. coli heat-stable enterotoxin (ST) (peptide)” as the substance, how does the EC50 for ST (cytostatic effect, in vitro TJU experiments) read?
**A.** 10 nM
